Data published in patent US9290743B2, “L-aspartate oxidase variant and a method for producing quinolinate or nicotinic acid using the same” (CJ CHEILJEDANG CORP., priority 2013, dated 2016).

Tested on: L-aspartate oxidase
Test: Activity test of L-aspartate oxidase variants (H2O2, Amplex Red, absorbance at 560 nm) with NAD added
Type: biochemical, E. coli
Experimental: After the recombinant vector pT7-nadB, pT7-nadB67, pT7-nadB67(V), pT7-nadB67(L), pT7-nadB67(I), or pT7-nadB67(H) was transformed into a tuner strain via CaCl2 method, the transformed strain was smeared on a LB-SP (yeast extract 10 g/L, NaCl 5 g/L, tryptone 10 g/L, and spectinomycin […]) plate medium, and cultured overnight at 37[…] to select spectinomycin-resistant colonies. One colony was selected from them and cultured in a LB-SP (yeast extract 10 g/L, NaCl 5 g/L, tryptone 10 g/L, spectinomycin […]) liquid medium, and then a isopropyl-1-thio-β-D-galactopyranoside (IPTG) derivative was added thereto when the growth optical density (OD) value reached to 0.4, and cultured at about 18[…] overnight. Cells including the overexpressed wild type L-aspartate oxidase and L-aspartate oxidase variants were recovered from the culture medium, followed by purification of the wild type L-aspartate oxidase and L-aspartate oxidase variants from the recovered cells by Ni-NTA spin kit (Quiagen, U.S.A). The recovered protein was 50% of a total protein, about 2% of the recovered protein was recovered as L-aspartate oxidase.
The L-aspartate oxidase converts aspartate as a substrate to iminoaspartate in the presence of an FAD as cofactor, and the imminoaspartate is converted b to oxaloacetate. Hydrogen peroxide (H2O2), that is generated through the above-described reaction, was used to identify the activity of the nadB. Absorbance at 560 nm of a reaction product of H2O2 with a product from the reaction was measured using an Amplex Red (Invitrogen, Korea) to determine the activity of the nadB. Here, NAD was added at different concentrations to create a condition for competitive inhibition to FAD so as to evaluate the resistance of L-aspartate oxidase against the feedback regulation by NAD.

B1: Wild type-nadB: His-tagged wild type E. coli L-aspartate oxidase (SEQ ID NO: 1) purified from pT7-nadB expression (protein)
chain: MNTLPEHSCDVLIIGSGAAGLSLALRLADQHQVIVLSKGPVTEGSTFYAQGGIAAVFDETDSIDSHVEDTLIAGAGICDRHAVEFVASNARSCVQWLIDQGVLFDTHIQPNGEESYHLTREGGHSHRRILHAADATGREVETTLVSKALNHPNIRVLERSNAVDLIVSDKIGLPGTRRVVGAWVWNRNKETVETCHAKAVVLATGGASKVYQYTTNPDISSGDGIAMAWRAGCRVANLEFNQFHPTALYHPQARNFLLTEALRGEGAYLKRPDGTRFMPDFDERGELAPRDIVARAIDHEMKRLGADCMFLDISHKPADFIRQHFPMIYEKLLGLGIDLTQEPVPIVPAAHYTCGGVMVDDHGRTDVEGLYAIGEVSYTGLHGANRMASNSLLECLVYGWSAAEDITRRMPYAHDISTLPPWDESRVENPDERVVIQHNWHELRLFMWDYVGIVRTTKRLERALRRITMLQQEIDEYYAHFRVSNNLLELRNLVQVAELIVRCAMMRKESRGLHFTLDYPELLTHSGPSILSPGNHYINR
modifications: His tag; amino acid sequence of nadB
Relative activity (NAD 0 mM): 100%
Relative activity (NAD 0.05 mM): 95%
Relative activity (NAD 0.3 mM): 82%
Relative activity (NAD 0.5 mM): 65%
Relative activity (NAD 1 mM): 22%
Relative activity (NAD 1 mM, listed as wild type L-aspartate oxidase): less than 50%
